# Source: patent publication US20220235138A1, “CAR-T CELLS TARGETING IL-1RAP AND THEIR USE IN ACUTE MYELOID LEUKEMIA (AML)” (ETABLISSEMENT FRANCAIS DU SANG, priority 2019, published 2022)
# Where “and” joins values, the source holds several entries; their conditions need not be identical. Equal values may be shown once.
# Experiments:
# [1] = system: healthy hematopoietic cells (HSCs, monocytes); experiment: IL-1RAP cell surface staining of healthy donor peripheral blood and bone marrow cells; type: binding
# Procedure: (A) IL-1RAP cell surface expression on peripheral blood (left) or bone marrow (right) cells from healthy donors (n=5). SSC-A/CD45+ allowed discrimination of subpopulations as lymphocytes (SSC-A low), monocytes (CD33+), granulocytes (SSC-A high), or HSCs (CD33−/CD34+). RFI was calculated from isotype staining and provided in each window. (B) Representative (1 of 3) IL-1RAP staining of whole human cord blood cells. IL-1RAP staining is provided for whole CD34+, CD34+/CD38−, and CD34+/CD38+ HSC cord blood subpopulations. (C) IL-1RAP-positive cells among CD34+ cells in cord blood (CB, n=5) or bone marrow (BM) from healthy donors (n=5) compared to CD34+ cells from the BM (n=10) or peripheral blood (PB, n=10) from CML patients. […] Percentages were calculated using absolute cell number determined using Trucount tubes based on 5000 fluorescent-bead cytometry acquisition. (F) Left, Gating strategy and analysis for absolute count of CID AP1903-induced cell death. […] The quantification was performed after acquiring 5000 fluorescent beads. Killing efficiency was normalized to control cells (untreated cells). Cell killing was calculated as follows: % Dead cells=[1−(absolute number of viable cells in AP1903-treated cells/absolute number of viable cells in untreated cells)]×100. (D) Absolute percentage of mortality. 24 h or 48 h C0 or IL-1RAP CAR (gated on CD3+/CD19+) T cell CID exposure. […]
# IL-1RAP [2] = experiment: Hybridoma screening by FACS against IL-1RAP-positive and -negative cell lines; type: binding, human; conditions: compared among the 5 subclones
# Description: Briefly, BALB/c mice (5 weeks, Charles River) were immunized either by foot pad (n=3) or intraperitoneally (n=5) with a recombinant fusion protein consisting of the extra cellular part of IL-1RAP (NM_002182.2, NCBI) and the Fc-part of human IgG1 (R&D Systems, Lille, France). Lymph nodes or spleens cells and blood samples were harvested and cells were fused with the mouse myeloma cell line, then screened by FACS analysis Becton Dickinson)(, against IL-1RAP-positive (KU812) and -negative (Raji, KG1) cell lines.
# Screening of hybridoma allowed to select 5 monoclonal antibodies subclones that discriminate IL-1RAP positive (KU812 or KG-1 respectively AML or Phi^+p^210 CML) from negative cell lines (Tom-1, NALM-20, Jurkat or Raji, respectively Phi+^p190 B-ALL, Phi^−B-ALL, T-ALL or Burkitt's lymphoma).
# Molecular characterization was performed by Sanger sequencing of cloned PCR products amplification obtained with degenerated primers specific of the FR1 and constant regions of the heavy and light chains according to the protocol of Wang. Z. et al (J. Immunol. Methods, 2000; 233, pages 167-77). […] The monoclonal antibody subclone (#E3C3) was chosen, since it gave the highest relative fluorescence intensity (RFI) by cytometry.
# IL-1RAP [3] = experiment: Immunostaining of FDA standard frozen normal tissue array; type: binding, human; parameters: key to Staining intensity (0 to 3+): negative (0); weak staining (1+); moderate staining (2+); strong staining (3+); conditions: for Staining intensity (0 to 3+): replicates
# Description: FIG. 13: (A) Tissue microarray. Representative #A3C3 staining of an US Food and Drug Administration standard frozen tissue array, including 90 tissue cores (30 organs) of 3 individual donors per organ (US Biomax, Rockville, Md., USA). Immunostaining was detected using the UltraView Universal DAB Detection Kit (Ventana, USA). Images were acquired and analyzed with NDP.view 2.0 software. […] (Scale bars, 100 μm.) High IL-1RAP (KU812) or negative (Raji)-expressing cell lines were respectively used as positive or negative controls. (B) IL-1RAP R&D (red) or #A3C3 (blue) staining of HMEC-1 dermal endothelial cell line. Isotype IgG1 (gray) is depicted as overlay. RFI is provided for both staining.
# In order to study specific or non-target tissue binding, FDA standard frozen tissue arrays, including 90 tissue cores (30 organs) of 3 individual donors per organ (US Biomax, Rockville, United States) were incubated as previously described. Immunostaining was detected using UltraView Universal DAB Detection Kit (Ventana, USA). Images were acquired and analyzed with NDP.view 2 software. High IL-1RAP (KU812) or negative (Raji) expressing cell lines were respectively used as positive or negative controls. The staining intensity was graduated as follows: negative (0), weak staining (1+), moderate staining (2+), or strong staining (3+). […]
# Chain of IL-1RAP (Q9NPH3 21-570): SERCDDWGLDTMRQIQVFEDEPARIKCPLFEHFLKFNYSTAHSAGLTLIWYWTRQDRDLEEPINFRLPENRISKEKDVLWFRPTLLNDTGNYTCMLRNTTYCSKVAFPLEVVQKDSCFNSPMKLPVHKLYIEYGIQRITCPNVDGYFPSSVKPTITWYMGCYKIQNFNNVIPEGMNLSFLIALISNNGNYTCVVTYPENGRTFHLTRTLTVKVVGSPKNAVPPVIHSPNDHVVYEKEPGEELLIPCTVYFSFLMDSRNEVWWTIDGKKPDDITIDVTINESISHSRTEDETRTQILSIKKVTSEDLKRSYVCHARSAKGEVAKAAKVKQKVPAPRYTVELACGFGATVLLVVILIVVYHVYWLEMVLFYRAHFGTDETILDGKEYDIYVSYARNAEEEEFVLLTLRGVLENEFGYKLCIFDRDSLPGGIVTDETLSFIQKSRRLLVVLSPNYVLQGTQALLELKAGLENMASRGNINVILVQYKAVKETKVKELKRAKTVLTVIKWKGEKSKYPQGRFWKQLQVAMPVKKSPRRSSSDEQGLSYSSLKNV
molecule,measurement,setting,value
"#A3C3: mouse anti-hIL-1RAP monoclonal antibody generated by standard hybridoma technique; VH SEQ ID No 2, VL SEQ ID No 4 (antibody, V domains shown, Amino acid sequence of chain H (VH) of murine scFv anti-IL-1RAP; Amino acid sequence of chain K (VL) of murine scFv anti-IL-1RAP) VH: MGWSCIILFLVATATGVNSQVQLQQPGAELMMPGASVKVSCEASGYTFTDSWMHWVKQRPGQGLEWIGAIDPSDSYTTYNQKFTGKATLSVDESSNTAYMQLSSLTSEDSAVYYCARYYSGSNYISPFPYWGQGTLVTVSA VL: MESQIQVFVFVFLWLSGVDGDIVMTQSHKFMSTSVGDRVTITCKASLDVSTAVAWYQQKPGQSPKLLIYSASYRYTGVPDRFTGSGSGTDFTFTISSVQAEDLAVYYCQQHYSPPFTFGSGTNLEIK",RFI,"[1]; HSCs in bone marrow from healthy donors, n=5",< 1.2
same,RFI,"[1]; monocyte subpopulation, weak staining in 2/5 peripheral blood and 3/5 bone marrow from healthy donors",< 2
same,relative fluorescence intensity (RFI) by cytometry,IL-1RAP [2],highest
same,Staining intensity (0 to 3+),IL-1RAP [3]; Adrenal gland,0
same,Staining intensity (0 to 3+),IL-1RAP [3]; Cerebellum tissue,0
same,Comments: stained epithelial cells,IL-1RAP [3]; Colon,Epithelial cells (~30%);
same,Comments: stained inflammatory elements,IL-1RAP [3]; Colon,(100%)
same,Staining intensity (0 to 3+),IL-1RAP [3]; Colon,3+
same,Staining intensity (0 to 3+),IL-1RAP [3]; Esophagus,0
same,Staining intensity (0 to 3+),IL-1RAP [3]; Heart,0
same,Staining intensity (0 to 3+),IL-1RAP [3]; Kidney,0
same,Staining intensity (0 to 3+),IL-1RAP [3]; Liver,0
same,Comments: stained elements,IL-1RAP [3]; Lung,Few inflammatory elements
same,Staining intensity (0 to 3+),IL-1RAP [3]; Lung,2+
same,Comments: stained endothelial cells,IL-1RAP [3]; Lymph node,~30% of endothelial cells
same,Staining intensity (0 to 3+),IL-1RAP [3]; Lymph node,2+ and 1+
same,Staining intensity (0 to 3+),IL-1RAP [3]; Ovary,0
same,Staining intensity (0 to 3+),IL-1RAP [3]; Pancreas,1+
same,Staining intensity (0 to 3+),IL-1RAP [3]; Peripheral nerve,0
same,Staining intensity (0 to 3+),IL-1RAP [3]; Pituitary gland,0
same,Comments: stained cytotrophoblast cells,IL-1RAP [3]; Placenta,Cytotrophoblast cells (~10%)
same,Staining intensity (0 to 3+),IL-1RAP [3]; Placenta,0
same,Comments: stained endothelial cells,IL-1RAP [3]; Prostate,~10% of endothelial cells
same,Staining intensity (0 to 3+),IL-1RAP [3]; Prostate,1+ (2×) and 0 (4×)
same,Staining intensity (0 to 3+),IL-1RAP [3]; Salivary gland,0
same,Comments: stained endothelial cells,IL-1RAP [3]; Skeletal muscle 1,~10% of endothelial cells
same,Staining intensity (0 to 3+),"IL-1RAP [3]; Skeletal muscle, first listing",1+ and 0 (2×)
same,Staining intensity (0 to 3+),"IL-1RAP [3]; Skeletal muscle, second listing",0
same,Staining intensity (0 to 3+),IL-1RAP [3]; Skin,0
same,Comments: stained epithelial cells,IL-1RAP [3]; Small intestine,Epithelial cells (~30%);
same,Comments: stained inflammatory elements,IL-1RAP [3]; Small intestine,(100%)
same,Staining intensity (0 to 3+),IL-1RAP [3]; Small intestine,2+ and 0 and 1+
same,Staining intensity (0 to 3+),IL-1RAP [3]; Smooth muscle,0
same,Staining intensity (0 to 3+),IL-1RAP [3]; Spinal cord,0
same,Comments: stained elements,IL-1RAP [3]; Spleen,Necrotic elements
same,Staining intensity (0 to 3+),IL-1RAP [3]; Spleen,3+
same,Comments: stained epithelial cells,IL-1RAP [3]; Stomach 1,cells <10%
same,Comments: stained gastric mucosa cells,IL-1RAP [3]; Stomach 1,(~10%); few epithelial
same,Staining intensity (0 to 3+),IL-1RAP [3]; Stomach,1+ and 0 (2×)
same,Staining intensity (0 to 3+),IL-1RAP [3]; Testis,0
same,Staining intensity (0 to 3+),IL-1RAP [3]; Thyroid gland,0
same,Staining intensity (0 to 3+),IL-1RAP [3]; Ureter,0
same,Staining intensity (0 to 3+),IL-1RAP [3]; Uterine cervix,0
